The supplement of paper PMC9170038

Assays:
MS2 coat protein [1] = experiment: apparent KD of MS2 coat protein, switch ON state; designed switch direction (-1 OFF switch, 1 ON switch): -1; higher = weaker reporter binding; details: FMN input: 0 or 200 uM; Eterna round: R93 (includes R88 designs)
In short: (§1)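 Designed RNA switches, transcribed on-chip from Illumina sequencing clusters, were titrated with SNAP-549-labelled MS2 coat protein from 0.7 or 1.5 nM to 3 µM in twofold steps. The solution was 100 mM Tris-HCl pH 7.5, 80 mM KCl, 4 mM MgCl2, with constant ligand or without it. Apparent KD is the median over each design's normalised cluster binding-curve fits.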

MS2 coat protein [2] = experiment: apparent KD of MS2 coat protein, switch OFF state (with FMN for OFF switches, without FMN for ON switches); designed switch direction (-1 OFF switch, 1 ON switch): -1; higher = weaker reporter binding; details: FMN input: 0 or 200 uM; Eterna round: R93 (includes R88 designs)
In short: as §1

| Sequence | apparent KD of MS2 coat protein (MS2 coat protein [1]) [µM] | apparent KD of MS2 coat protein (MS2 coat protein [2]) [µM] |
| --- | --- | --- |
| AGCUAGUGAGGAUAUACGAACAUGUCAACGGACUGUAAGGGACAUGAGGAUCACCCAUGUAGAAGGCACUAGCA [Diamond 57] | 0.0672 | 0.165 |
| AGUCAGAGAGGAUAUACAUGAAAAAAAAAAGUUAGAUCCCUACAUGAGGAUCACCCAUGUAGAAGGCUCUGACA [Ex2 Design 151: Sub-opt 15] | 0.0578 | 0.027 |
| GGUUGGCGAGGAUAUACAUGAGGAUCACCCAUGUGAGAGAAAAAAGUGAGGAGGAGGAGUAGAAGGCGCUGACG [salish99-ex3-18] | 0.0284 | 0.097 |
| GGUUGUGAAGGAUAUACAUGAGGAUCACCCAUGUGAGAGAAAAAAGUGAGAAAGAAAAGUAGAAGGUCAUGACG [salish99-ex3-64] | 0.0308 | 0.0762 |
| AAAAAGUCAGGAUAUACGAAAGUGCGAAAGCACAAAAAGAGACAUGAGGAUCACCCAUGUAGAAGGGACAAGAA [Married to this design, 61% 2] | 0.045 | 0.0178 |
| AAGCACAGAGGAUAUACAUGGGUAAAAAAAAAAAAAAAAAAACAUGAGGAUCACCCAUGUAGAAGGCUGUGCAA | 0.0326 | 0.0243 |
| AAAAAACAUGAGGAUCACCCAUGUGAGGAUAUCGGAAAAGGAAAAAUAAAAAAGAAGACGAGAAGGCACACCAA [Mat - Exclusion 1 - Eli mod - D74] | 0.0209 | 0.0246 |
| AAGAAAGGAGGAUAUACAAAAUAAAAGAAAAGAAAGAAAGAACAUGAGGAUCACCCAUGUAGAAGGCCUAAGAA [Merhotepre Sobekhotep V] | 0.0235 | 0.0144 |
| AAGAAGUGAGGAUAUGUCUGUGCGAAAAAAAAAAAGUGCAGACAGAAGGCACAUGAGGAUCACCCAUGUGGAAA [Florian 65% 5] | 0.0278 | 0.0291 |
| GAAAAGUGAGGAUAUGCGAAGGCGUCUGAUAGACGAGGCUAGCAGAAGGCACAUGAGGAUCACCCAUGUGGGAG [Mat - Exclusion 4 - Eli mod - D92] | 0.0619 | 0.0764 |
| CUCAUGUGAGGAUAUCAGUAGUAAAAAAAAAAAAUUACUACUGAGAAGGCACAUGAGGAUCACCCAUGUGCCUU [EX4 325: Super Stable 25] | 0.0189 | 0.0155 |
| AAAAAACAUGAGGAUCACCCAUGUGAGGAUAUCGUAAACAAAAAAAACAAAAACAAAUCGAGAAGGCACAAAAA [Amethyst 34] | 0.021 | 0.0351 |
| GGGUAGUCAGGAUAUACAAACAUGUCAAAAGACGUGAAAAAACAUGAGGAUCACCCAUGUAGAAGGGACUACCC [Mat - Exclusion 2 - JL mod - D20] | 0.0178 | 0.015 |
| ACCACACAUGAGGAUCACCCAUGUGAGGAUAUCUAGAAAACCUCAUGUAAAAAAAUCUAGAGAAGGCAUAUGAA [Design 93: Pseudoknot C] | 0.0383 | 0.0284 |
| AAAAAGUGAGGAUAUUCGGAUAGGAAAACGAAAACCUAUCCGAAGAAGGCACAUGAGGAUCACCCAUGUAAAAA [67% Ecls-II - Early G segment 1] | 0.037 | 0.0376 |
| AGCUAGUCAGGAUAUACGAACAUGUAAAAAGACGUGAAGGGACAUGAGGAUCACCCAUGUAGAAGGGACUAGAA [74%, Web mod - With 2 less C's] | 0.0467 | 0.0913 |
| AAGGGACAUGAGGAUCACCCAUGUCAGGAUAUGCUAUGGAAAUAAAAAAUAAAACAUAGCAGAAGGGACACCAA [Mat - Exclusion 1 - Eli mod - D49] | 0.024 | 0.0392 |
| AUUAUGUAAGGAUAUGAGUGAACAACAAAACAAAUAACGACUCAGAAGGUACAUGAGGAUCACCCAUGUAUAAA [May 70] | 0.0289 | 0.021 |
| AAAAAACAUGAGGAUCACCCAUGUGAGGAUAUGCAAAACCCAUAUAAAAAGGGAAAAAGCAGAAGGCACAAAAA [Starry Exclusion 1.3 (wbt round 1 mod)] | 0.0228 | 0.0558 |
| AGUAUGCGAGGAUAUACAUGAGGAUCACCCAUGUGAGAGAUAAAAGUGAGAAAGACAAGUAGAAGGCGCGUACA [JL Lego Mod 23] | 0.0548 | 0.354 |
| GAAAAGUGAGGAUAUACAGAUAAAAAAACGAAAAAAAAUCUGUAGAAGGCACAUGAGGAUCACCCAUGUAAAAA [Mat - Exclusion 4 - Mayanna - D106] | 0.0317 | 0.0298 |
| AAAACACAUGAGGAUCACCCAUGUGAGGAUAUGCGAAAAAAAAAAAAAAAAAAAAAACGCAGAAGGCACAUAAA [jn_teaneck] | 0.0236 | 0.0435 |
| AAAAAGUCAGGAUAUGCAGAAAAAAAAACGAAAAAAAAACUGCAGAAGGGACAUGAGGAUCACCCAUGUUAAAA [Ex 4 May 14] | 0.0308 | 0.0298 |

| Sequence | apparent KD of MS2 coat protein (MS2 coat protein [1]) [µM] | apparent KD of MS2 coat protein (MS2 coat protein [2]) [µM] |
| --- | --- | --- |
| CUCAAGUGAGGAUAUUCAAGAAAAGAAAAGAAAGAAAAGAAGAAGAAGGCACAUGAGGAUCACCCAUGUAAGAA [EteRNA is fun!] | 0.0349 | 0.0575 |
| AGGGAGUAAGGAUAUGAGAAAUAAAAAGAAGGAAAAAAAGAUCAGAAGGUACAUGAGGAUCACCCAUGUGGGAA [milkweed 10] | 0.0431 | 0.0399 |
| AAAAAGGCAGGAUAUACGAAACUAAGACAAAUAAGAAAGGGACAUGAGGAUCACCCAUGUAGAAGGGCCAAAAA [Exclusion 2-01... 60% 4] | 0.0491 | 0.0701 |
| AAAAAAGGAGGAUAUACGUACAUGUCGAAAGACGUGAAGGGACAUGAGGAUCACCCAUGUAGAAGGCCUAAAAA [Mat - Exclusion 2 - JL mod - D86] | 0.0348 | 0.107 |
| AAGGGACAUGAGGAUCACCCAUGUCAGGAUAUGCUAUGGAAAUAAAAAAUAAAACAUAGCAGAAGGGACAAAAA [Mat - Exclusion 1 - Eli mod - D33] | 0.0412 | 0.0676 |
| AUAAAGUAAGGAUAUGCGAAUAAAUAAGUAGACGAAUGAAAGCAGAAGGUACAUGAGGAUCACCCAUGUAAGAA [Ex 4 Tesla 2] | 0.0303 | 0.019 |
| GGCUAGUCAGGAUAUACGAACAUGUCAAAAGACGUGAAGGGACAUGAGGAUCACCCAUGUAGAAGGGACUAGCG [salish99-ex2-13] | 0.0328 | 0.132 |
| AGGAAACAUGAGGAUCACCCAUGUCAGGAUAUAGGAAAGAAAAGAAAAGAAAGAAGAAUUAGAAGGGACAAGAA [King Scorpion] | 0.0235 | 0.0165 |
| AAAUUGUCAGGAUAUCUUAGAAUAGUCAAAGACUAGAGCUAAGAGAAGGGACAUGAGGAUCACCCAUGUAAAAC [May 91] | 0.0618 | 0.0566 |
| AGCUAGUGAGGAUAUACGAACAUGUCAAAAGACGUGAAAAAACAUGAGGAUCACCCAUGUAGAAGGCACUAGCA [Mat - Exclusion 2 - JL-Eli mod - D56] | 0.0192 | 0.0169 |
| AAGAAGUCAGGAUAUGCUAAAGAAAUGAAAAGAAAGAAAGAACAUGAGGAUCACCCAUGUAGAAGGGACAAGAA [Dedumose I] | 0.0471 | 0.0383 |
| AAGAAAGCAGGAUAUACAAGAAAGAAAGAAAAGAAAAGAAAACAUGAGGAUCACCCAUGUAGAAGGGCUUAGAA [EteRNA is fun!] | 0.0279 | 0.0231 |
| AAAAUAAAAGGAUAUAAAAAUAAAAGUCAGGAUAUAGGAAACUAGAAGGGACAUGAGGAUCACCCAUGUAAAAU [Meechl Ex4 R2 m1] | 0.0478 | 0.0338 |
| CAUAAGCAAGGAUAUACAUGAGGAUCACCCAUGUAGCUUUGCUUCGUGGGCACAACAUGUAGAAGGUGCGAAAA [Leceedon] | 0.015 | 0.0139 |
| AUCUAGUCAGGAUAUCGAUGAAAUGAAGUGAAAGAAAAGAACGAGAAGGGACAUGAGGAUCACCCAUGUUAGAA [EteRNA is fun!] | 0.0312 | 0.0188 |
| GAAAAGGUAGGAUAUACGAAAAAAAAGGGUAAAAUAAAUAAACAUGAGGAUCACCCAUGUAGAAGGACCAAAAG [Mat - Exclusion 2 - Tesla mod - D39] | 0.0301 | 0.0496 |
| CCACAGGUAGGAUAUGCUGGGUGGGAUAAAUAAUUCCUGUGACAUGAGGAUCACCCAUGUAGAAGGACCAAAAG [Rixela] | 0.0229 | 0.0401 |
| AAGCUGCUAGGAUAUACAGCAGGGAUUCGAAAACCCACGAAACAUGAGGAUCACCCAUGUAGAAGGAGUAGGGA [Attixe] | 0.0229 | 0.0152 |
| CUCAAGUGAGGAUAUUUAAGAAAAGAAGAGAAAGAAAAGAAAAAGAAGGCACAUGAGGAUCACCCAUGUAAGAA [EteRNA is fun!] | 0.0315 | 0.0328 |
| AGGGAGUGAGGAUAUGCGAAAGAAAAAGAAGGAAAAAAAGAGCAGAAGGUACAUGAGGAUCACCCAUGUAAAAA [milkweed 8] | 0.0279 | 0.0169 |
| AAAAAACAUGAGGAUCACCCAUGUGAGGAUAUGUAAAAUAAAAUAAAAAUAAAGAAAAGCAGAAGGUAUAUGAA [Amethyst 65] | 0.0204 | 0.0232 |
| AGAACGUCAGGAUAUCCAACAACAAGUAAAUAGAGAAGAAGGGAGAAGGGACAUGAGGAUCACCCAUGUAAGAA [e4-2] | – | 0.0299 |
